B1: MDMX 24-108 (protein)
chain: INQVRPKLPLLKILHAAGAQGEMFTVKEVMHYLGQYIMVKQLYDQQEQHMVYCGGDLLGELLGRQSFSVKDPSPLYDMLRKNLVT
B2: MDM2 25-109 (protein)
chain: ETLVRPKPLLLKLLKSVGAQKDTYTMKEVLFYLGQYIMTKRLYDEKQQHIVYCSNDLLGDLFGVPSFSVKEHRKIYTMIYRNLVV

Experiments:
Stingin-4 = assay: SPR competition
Stingin-2 = assay: SPR
Stingin-1 = assay: SPR

Binder	Kd (Stingin-4)	Kd (Stingin-2)	Kd (Stingin-1)
B1	252 nM	18 nM	11.4 nM
B2		35.2 nM	25.1 nM

— article PMC2845718 (2009)
